According to US20100196395A1 (Boehringer Ingelheim, published 2010):
One block for each binder: values may come before it.

Legend:
murine IGF-2 [1] = biological target: T1, murine IGF-2 (murine, UniProt P09535 25-91); experiment: ELISA titration of the IgG1 on coated murine IGF-2, OD 450
T1 construct: bought reagent; also called mouse IGF-2

[2] = biological target: recombinant human insulin (human, UniProt P01308 25-54; P01308 90-110); experiment: ELISA titration of the IgG1 on coated human insulin, OD 450
recombinant human insulin, sequence (P01308 25-54 limits assumed, chain 1 of 2): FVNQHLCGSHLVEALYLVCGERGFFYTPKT
recombinant human insulin, sequence (P01308 90-110 limits assumed, chain 2 of 2): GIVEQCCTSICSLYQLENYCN

rat IGF-2 [3] = biological target: T2, rat IGF-2 (rat, UniProt P01346 25-91); experiment: ELISA titration of the IgG1 on coated rat IGF-2, OD 450
T2 construct: bought reagent
T2 sequence (P01346 25-91 limits assumed): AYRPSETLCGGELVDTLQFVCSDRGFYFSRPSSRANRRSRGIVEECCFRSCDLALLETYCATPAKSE

recombinant human IGF-2 [4] = biological target: T3, recombinant human IGF-2 (human, UniProt P01344 25-91); experiment: ELISA titration of the IgG1 on coated human IGF-2, OD 450
T3 construct: mature; also called insulin-like growth factor-2

biotinylated IGF-1 [5] = biological target: T4, biotinylated IGF-1 (UniProt P05019 49-118, biotinylated (site not stated)); experiment: competition ELISA: antibody blocks binding of biotinylated IGF-1 to coated IGF-1R, fluorescence readout
T4 construct: also called IGF-1 ligand
Procedure: To identify IGF antibodies that neutralize the ability of IGF-1 and IGF-2 to bind to the IGF-1R, an ELISA is established by coating plates with 1.5 μg/ml recombinant human IGF-1R (R&D Systems) which allows the binding of biotinylated IGF-1 and biotinylated IGF-2. Bound IGF-1 or IGF-2 is detected using alkaline phosphatase-conjugated streptavidin (1:10,000 dilution) (Roche). […] Antibody Fab fragments that block the binding of biotinylated ligand are identified by a reduction in fluorometric signal.

rat IGF-1 [6] = biological target: T5, rat IGF-1 (rat, UniProt P08025 49-118); experiment: ELISA titration of the IgG1 on coated rat IGF-1, OD 450
T5 construct: bought reagent
T5 sequence (P08025 49-118 limits assumed): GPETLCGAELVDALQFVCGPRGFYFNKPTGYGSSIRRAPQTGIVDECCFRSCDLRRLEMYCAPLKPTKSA

biotinylated IGF-1 [7] = biological target: T4, biotinylated IGF-1; experiment: competition ELISA: antibody titrated against biotinylated IGF-1 binding to coated IGF-1R; antibody 40183; mass concentration
murine IGF-1 [8] = biological target: T6, murine IGF-1 (murine, UniProt P05017 49-118); experiment: ELISA titration of the IgG1 on coated murine IGF-1, OD 450
T6 construct: bought reagent; also called mouse IGF-1

biotinylated IGF-1 [9] = biological target: T4, biotinylated IGF-1; experiment: competition ELISA: antibody titrated against biotinylated IGF-1 binding to coated IGF-1R; antibody 40186; mass concentration
recombinant human IGF-1 [10] = biological target: T7, recombinant human IGF-1 (human, UniProt P05019 49-118); experiment: SPR (Biacore), IGF coating method, bivalent antibody injected (avidity); IGF coated on the chip, bivalent antibody injected (avidity)
T7 construct: mature; also called insulin-like growth factor-1

recombinant human IGF-2 [11] = biological target: T3, recombinant human IGF-2; experiment: SPR (Biacore), IGF coating method, bivalent antibody injected (avidity)
Procedure: (§1) Affinity constants are also determined for binding of the IGF antibodies to human IGF-1 and IGF-2 using a method where the IGF ligands are coated to the Biacore sensor chip and a range of antibody concentrations injected. The approximately 30-50-fold increase in the binding constants using this method compared with the initial antibody capture method is likely due to an avidity effect where both antibody binding domains interact with an IGF molecule.

recombinant human IGF-1 [12] = biological target: T7, recombinant human IGF-1; experiment: as above
Procedure: as §1

recombinant human IGF-2 [13] = biological target: T3, recombinant human IGF-2; experiment: SPR (Biacore), antibody capture method, IGF antigen injected
Procedure: (§2) The sensor chip is coated with approximately 1000 RU of the reference antibody in flow cell 1 and approximately 1000 RU of a rabbit-anti-human Fc-gamma-specific antibody in flow cell 2 using the coupling reagents from an amine coupling kit. A target of 1000 RU is set in the surface preparation wizard of the Biacore 3000 software at a flow rate of 5 μl/min. Running buffer used is HBS-EP. […] The IGF antigens are diluted to 500, 250, 125, 62.5 and 31.3 nM in running buffer (HCB) and the different antigen dilutions are run singly over Fc1 and Fc2 with random order. Blank runs using running buffer only are run in-between. A blank run curve is subtracted from each binding curve before affinity analysis. Data evaluation is performed using the BIAevaluation software (version 4.1, Biacore, Freiburg, Germany). The dissociation and association phases of the kinetics are fitted separately. For the separate fit of the kdiss values a time-frame of the initial 200-300 seconds in the dissociation phase is used (range of steady decrease of signal). For the separate fit of the kₐₛₛ values, initial time frames of approx 100 seconds are used (range of steady increase of signal) and for calculation the individual kdiss values are used with the 1:1 Langmuir association model. The average values with the standard deviations of the kinetic data together with the corresponding dissociation (KD) and association (KA) constants are calculated.
(§3) The analysis is initially performed by capturing the IGF antibodies on the sensor chip and injecting a range of antigen concentrations, thereby eliminating the possibility of an avidity effect.

rat IGF-2 [14] = biological target: T2, rat IGF-2; experiment: as above
Procedure: as §2, §3

murine IGF-1 [15] = biological target: T6, murine IGF-1; experiment: as above
Procedure: as §2, §3

recombinant human IGF-1 [16] = biological target: T7, recombinant human IGF-1; experiment: as above
Procedure: as §2, §3

murine IGF-2 [17] = biological target: T1, murine IGF-2; experiment: as above
Procedure: as §2, §3

rat IGF-1 [18] = biological target: T5, rat IGF-1; experiment: as above
Procedure: as §2, §3

binding result (murine IGF-2 [1]): binds
binding result [2]: no binding (tested: 100 ng/ml)
binding result (rat IGF-2 [3]): binds
binding result (recombinant human IGF-2 [4]): binds
IC50 (read off the curve) (biotinylated IGF-1 [5]): ~3 ng/mL
binding result (rat IGF-1 [6]): binds
IC50 (biotinylated IGF-1 [7]): ~5 ng/mL
binding result (murine IGF-1 [8]): binds
B1: antibody 40183 (antibody, human IgG1, lambda, V domains shown)
VH: QVELVESGGGLVQPGGSLRLSCAASGFTWSSFAMSWVRQAPGKGLEWVSYISYLGSYTGYADSVKGRFTISRDNSKNTLYLQMNSLRAEDTAVYYCARGTKFDYWGQGTLVTVSS
VL: DIVLTQPPSVSGAPGQRVTISCTGSSSNIGTYDVHWYQQLPGTAPKLLIYSNSKRPSGVPDRFSGSKSGTSASLAITGLQSEDEADYYCSITRVFGGGTKLTVLG
notes: Fully human IgG1 / Ig lambda

IC50 (biotinylated IGF-1 [9]): ~5 ng/mL
binding result [2]: no binding (tested: 100 ng/ml)
IC50 (read off the curve) (biotinylated IGF-1 [5]): ~5 ng/mL
Ka (recombinant human IGF-1 [10]): 1.22e+10 M⁻¹
Ka (recombinant human IGF-2 [11]): 1.45e+10 M⁻¹
Kd (recombinant human IGF-2 [11]): 0.072 nM
koff (recombinant human IGF-2 [11]): 0.000164 s⁻¹
kon (recombinant human IGF-2 [11]): 2.26e+06 M⁻¹ s⁻¹
Kd (recombinant human IGF-1 [12]): 0.14 nM
koff (recombinant human IGF-1 [12]): 0.00023 s⁻¹
kon (recombinant human IGF-1 [12]): 2.1e+06 M⁻¹ s⁻¹
Ka (recombinant human IGF-2 [13]): 2.86e+08 M⁻¹
Kd (recombinant human IGF-2 [13]): 3.62 nM
koff (recombinant human IGF-2 [13]): 0.00362 s⁻¹
kon (recombinant human IGF-2 [13]): 1.03e+06 M⁻¹ s⁻¹
Ka (rat IGF-2 [14]): 1.67e+08 M⁻¹
Kd (rat IGF-2 [14]): 6.49 nM
koff (rat IGF-2 [14]): 0.00351 s⁻¹
kon (rat IGF-2 [14]): 602000 M⁻¹ s⁻¹
Ka (murine IGF-1 [15]): 1.44e+08 M⁻¹
Kd (murine IGF-1 [15]): 7.1 nM
koff (murine IGF-1 [15]): 0.00329 s⁻¹
kon (murine IGF-1 [15]): 466000 M⁻¹ s⁻¹
Ka (recombinant human IGF-1 [16]): 2.16e+08 M⁻¹
Kd (recombinant human IGF-1 [16]): 4.66 nM
koff (recombinant human IGF-1 [16]): 0.0027 s⁻¹
kon (recombinant human IGF-1 [16]): 581000 M⁻¹ s⁻¹
Ka (murine IGF-2 [17]): 1.08e+08 M⁻¹
Kd (murine IGF-2 [17]): 9.56 nM
koff (murine IGF-2 [17]): 0.00586 s⁻¹
kon (murine IGF-2 [17]): 632000 M⁻¹ s⁻¹
Ka (rat IGF-1 [18]): 3.67e+08 M⁻¹
Kd (rat IGF-1 [18]): 2.76 nM
koff (rat IGF-1 [18]): 0.00301 s⁻¹
kon (rat IGF-1 [18]): 1.1e+06 M⁻¹ s⁻¹
B2: antibody 40186 (antibody, human IgG1, lambda, V domains shown)
VH: QVELVESGGGLVQPGGSLRLSCAASGFTFSNYWMHWVRQAPGKGLEWVSGISGWSSWTYYADSVKGRFTISRDNSKNTLYLQMNSLRAEDTAVYYCARFGIDAYTKVYFDYWGQGTLVTVSS
VL: DIELTQPPSVSVAPGQTARISCSGDNIPLKYVSWYQQKPGQAPVLVIHDDNKRPSGIPERFSGSNSGNTATLTISGTQAEDEADYYCQSWASTGVVFGGGTKLTVLG
notes: Fully human IgG1 / Ig lambda from the HuCAL Gold library
